One substance from publication PMC3869376 can be followed below.

For test [1], the target named is 14-3-3β (UniProt P31946). Kind of test: GST-14-3-3β pull-down from cell lysate. The note with it: reference: HA-PDE3B wild type; sites S318.
Test [2] addresses 14-3-3β (UniProt P31946). The experiment in a line: DIG-GST-14-3-3β overlay on blotted immunoprecipitated PDE3B. The conditions noted are these: reference: HA-PDE3B wild type; sites S318.

Sequence of 14-3-3β (P31946 whole entry, looked up): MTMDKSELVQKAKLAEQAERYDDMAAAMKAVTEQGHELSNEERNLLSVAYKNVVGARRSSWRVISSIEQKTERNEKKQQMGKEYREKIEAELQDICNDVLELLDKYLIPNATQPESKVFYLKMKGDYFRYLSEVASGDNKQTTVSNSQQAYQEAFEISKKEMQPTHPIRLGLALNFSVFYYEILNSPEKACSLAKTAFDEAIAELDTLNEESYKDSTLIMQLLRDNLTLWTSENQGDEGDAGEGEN

In the case of “PDE3B (phosphodiesterase 3B) (from UniProt Q13370-2) HA-PDE3B S318A”, the “binding against the reference” value in the test with 14-3-3β [1] and with 14-3-3β [2] was “lost” each time.
